Assay results: patent US7709002
One block for each substance: values may come before it.

Experiments:
[1] = target: MHC class I (HLA class I) molecules; experiment: flow cytometry, Calu-1 cells, W6/32
[2] = target: MHC class I (HLA class I) molecules; experiment: flow cytometry, HT29 cells, W6/32
[3] = target: MHC class I (HLA class I) molecules; experiment: T2 bioassay, no peptide (b2m 3 µg/ml only), flow cytometry, staining of T2 cells with pan class I MAb W6/32; baseline
[4] = target: MHC class I (HLA class I) molecules; experiment: flow cytometry, SW480 cells, W6/32
[5] = target: ras p21 proteins of the Calu-1 lung carcinoma cell line (K-ras Cys12 mutation) (human) (UniProt P01116); experiment: cell-based or functional assay
HLA-A2 (human) [6] = experiment: T2 bioassay, isotype-matched control MAb staining of T2 cells incubated with ras5-14(G12)
HLA-A2 (human) [7] = experiment: T2 bioassay, isotype-matched control MAb staining of T2 cells incubated with ras5-14(C12)
HLA-A2 (human) [8] = experiment: T2 bioassay, isotype-matched control MAb staining of T2 cells incubated with ras8-16(V12)
HLA-A2 (human) [9] = experiment: T2 bioassay, isotype-matched control MAb staining of T2 cells incubated with ras5-14(V12)
HLA-A2 (human) [10] = experiment: T2 bioassay, isotype-matched control MAb staining of T2 cells incubated with ras5-12(V12)
HLA-A2 (human) [11] = experiment: T2 bioassay, isotype-matched control MAb staining of T2 cells incubated with ras5-13(V12)
[12] = target: ras p21 proteins of the SW480 colon carcinoma cell line (K-ras Val12 mutation) (human) (UniProt P01116); experiment: flow cytometry, fixed permeabilised SW480 cells, isotype-matched control UPC-10
HLA-A2 (human) [13] = experiment: T2 bioassay, isotype-matched control MAb staining of T2 cells incubated with ras5-17(D12)
[14] = target: ras p21 proteins of the Calu-1 lung carcinoma cell line (K-ras Cys12 mutation) (human) (UniProt P01116); experiment: flow cytometry, fixed permeabilised Calu-1 cells, isotype-matched control UPC-10
HLA-A2 (human) [15] = experiment: T2 bioassay, isotype-matched control MAb staining of T2 cells incubated with ras5-14(D12)
HLA-A2 (human) [16] = experiment: T2 bioassay, no peptide, flow cytometry, isotype-matched control MAb staining of T2 cells
HLA-A2 (human) [17] = experiment: T2 bioassay, isotype-matched control MAb staining of T2 cells incubated with CEA571-579
[18] = target: ras p21 proteins of the HT-29 colon carcinoma cell line (no known ras codon 12 point mutation) (human) (UniProt P01116); experiment: flow cytometry, fixed permeabilised HT29 cells, isotype-matched control UPC-10
[19] = target: ras p21 proteins of the HT-29 colon carcinoma cell line (no known ras codon 12 point mutation) (human) (UniProt P01116); experiment: flow cytometry, fixed permeabilised HT29 cells, RAS 10 at 3 µg/ml
[20] = target: ras p21 proteins of the Calu-1 lung carcinoma cell line (K-ras Cys12 mutation) (human) (UniProt P01116); experiment: flow cytometry, fixed permeabilised Calu-1 cells, RAS 10 at 10 µg/ml
[21] = target: ras p21 proteins of the HT-29 colon carcinoma cell line (no known ras codon 12 point mutation) (human) (UniProt P01116); experiment: flow cytometry, fixed permeabilised HT29 cells, RAS 10 at 1 µg/ml
[22] = target: ras p21 proteins of the Calu-1 lung carcinoma cell line (K-ras Cys12 mutation) (human) (UniProt P01116); experiment: flow cytometry, fixed permeabilised Calu-1 cells, RAS 10 at 3 µg/ml
[23] = target: ras p21 proteins of the Calu-1 lung carcinoma cell line (K-ras Cys12 mutation) (human) (UniProt P01116); experiment: flow cytometry, fixed permeabilised Calu-1 cells, RAS 10 at 1 µg/ml
[24] = target: ras p21 proteins of the SW480 colon carcinoma cell line (K-ras Val12 mutation) (human) (UniProt P01116); experiment: flow cytometry, fixed permeabilised SW480 cells, RAS 10 at 3 µg/ml
[25] = target: ras p21 proteins of the SW480 colon carcinoma cell line (K-ras Val12 mutation) (human) (UniProt P01116); experiment: flow cytometry, fixed permeabilised SW480 cells, RAS 10 at 1 µg/ml
[26] = target: ras p21 proteins of the SW480 colon carcinoma cell line (K-ras Val12 mutation) (human) (UniProt P01116); experiment: flow cytometry, fixed permeabilised SW480 cells, RAS 10 at 10 µg/ml
[27] = target: ras p21 proteins of the HT-29 colon carcinoma cell line (no known ras codon 12 point mutation) (human) (UniProt P01116); experiment: flow cytometry, fixed permeabilised HT29 cells, RAS 10 at 10 µg/ml
[28] = target: ras p21 proteins of the SW480 colon carcinoma cell line (K-ras Val12 mutation) (human) (UniProt P01116); experiment: sandwich ELISA, RAS 10 capture of SW480 lysate, rat anti-mouse B7.1 in place of the detection MAb
[29] = target: ras p21 proteins of the Calu-1 lung carcinoma cell line (K-ras Cys12 mutation) (human) (UniProt P01116); experiment: sandwich ELISA, RAS 10 capture of Calu-1 lysate, rat anti-mouse B7.1 in place of the detection MAb
[30] = target: ras p21 proteins of the HT-29 colon carcinoma cell line (no known ras codon 12 point mutation) (human) (UniProt P01116); experiment: sandwich ELISA, RAS 10 capture of HT29 lysate, rat anti-mouse B7.1 in place of the detection MAb
HLA-A2 (human) [31] = experiment: T2 bioassay (peptide 50 µg/ml + b2m 3 µg/ml, overnight), flow cytometry, stained with anti-HLA-A2 MAb
HLA-A2 (human) [32] = experiment: T2 bioassay (peptide 50 µg/ml + b2m 3 µg/ml, overnight), flow cytometry, stained with pan class I MAb W6/32
[33] = target: ras p21 proteins of the Calu-1 lung carcinoma cell line (K-ras Cys12 mutation) (human) (UniProt P01116); experiment: sandwich ELISA, RAS 10 capture, Y13-238 detection, Calu-1 lysate 75 µg protein
[34] = target: ras p21 proteins of the SW480 colon carcinoma cell line (K-ras Val12 mutation) (human) (UniProt P01116); experiment: sandwich ELISA, RAS 10 capture, Y13-238 detection, SW480 lysate 7.5 µg protein
[35] = target: ras p21 proteins of the HT-29 colon carcinoma cell line (no known ras codon 12 point mutation) (human) (UniProt P01116); experiment: sandwich ELISA, RAS 10 capture, Y13-238 detection, HT29 lysate 7.5 µg protein
[36] = target: ras p21 proteins of the HT-29 colon carcinoma cell line (no known ras codon 12 point mutation) (human) (UniProt P01116); experiment: sandwich ELISA, RAS 10 capture, Y13-238 detection, HT29 lysate 75 µg protein
[37] = target: ras p21 proteins of the Calu-1 lung carcinoma cell line (K-ras Cys12 mutation) (human) (UniProt P01116); experiment: sandwich ELISA, RAS 10 capture, Y13-238 detection, Calu-1 lysate 7.5 µg protein
[38] = target: ras p21 proteins of the SW480 colon carcinoma cell line (K-ras Val12 mutation) (human) (UniProt P01116); experiment: sandwich ELISA, RAS 10 capture, Y13-238 detection, SW480 lysate 75 µg protein

Proliferation Response (3H-thymidine uptake, cpm) of the CD4+ T cell line of patient 43 to Calu-1 extract (250 µg protein) on wells coated with isotype-matched MAb UPC-10, with BLCL [5]: 7320 cpm
Substance: isotype-matched (IgG2a) MAb UPC-10

MFI (HLA-A2 (human) [31]): 680
MFI (HLA-A2 (human) [32]): 991
Substance: CEA571-579 peptide (from UniProt P06731 571-579)

Immunoreactivity (A490) [33]: 1.5 A490
Immunoreactivity (A490) [34]: 1.5 A490
Immunoreactivity (A490) [35]: 0.99 A490
Immunoreactivity (A490) [36]: 1.49 A490
Immunoreactivity (A490) [37]: 1.29 A490
Immunoreactivity (A490) [38]: 1.59 A490
Substance: ras MAb, clone Y13-238 (antibody)

The next lines start with the substance.

Substance: pan HLA class I MAb W6/32 (antibody)
MFI [1]: 1620
Percent Positive Cells [1]: 93.4%
MFI [2]: 1310
Percent Positive Cells [2]: 93.5%
MFI [3]: 230
MFI [4]: 1180
Percent Positive Cells [4]: 84.2%

Substance: pan-ras MAb, clone RAS 10
Proliferation Response (3H-thymidine uptake, cpm) of the CD4+ T cell line of patient 43 to Calu-1 extract (250 µg protein) on wells coated with RAS 10, with BLCL [5]: 80500 cpm

Substance: isotype-matched (IgG2a) MAb UPC-10 (antibody)
MFI (HLA-A2 (human) [6]): 41.3
MFI (HLA-A2 (human) [7]): 61.4
MFI (HLA-A2 (human) [8]): 39.6
MFI (HLA-A2 (human) [9]): 38.1
MFI (HLA-A2 (human) [10]): 44.2
MFI (HLA-A2 (human) [11]): 54.1
Percent Positive Cells [12]: 5.3%
MFI (HLA-A2 (human) [13]): 46.5
Percent Positive Cells [14]: 1%
MFI (HLA-A2 (human) [15]): 50.8
MFI (HLA-A2 (human) [16]): 84
MFI (HLA-A2 (human) [17]): 48.4
Percent Positive Cells [18]: 11.6%

Substance: pan-ras MAb, clone RAS 10 (antibody)
MFI [19]: 304
Percent Positive Cells [19]: 83.4%
MFI [20]: 332
Percent Positive Cells [20]: 90.6%
MFI [21]: 233
Percent Positive Cells [21]: 58.6%
MFI [22]: 225
Percent Positive Cells [22]: 87.8%
MFI [23]: 176
Percent Positive Cells [23]: 59.8%
MFI [24]: 386
Percent Positive Cells [24]: 82.8%
MFI [25]: 273
Percent Positive Cells [25]: 67%
MFI [26]: 631
Percent Positive Cells [26]: 83.4%
MFI [27]: 423
Percent Positive Cells [27]: 93.1%

Substance: rat IgG2a anti-mouse B7.1 MAb (antibody)
Immunoreactivity (A490) [28]: 0.333 A490
Immunoreactivity (A490) [29]: 0.299 A490
Immunoreactivity (A490) [30]: 0.283 A490
